Laboratory results from article PMC6509496, “Crystal structure of the TreS:Pep2 complex, initiating α-glucan synthesis in the GlgE pathway of mycobacteria” (The Journal of Biological Chemistry, 2019).
Where a chain is given by its changes, count along the chain named. Names and notes keep the numbering of the source.

Molecular target: the molecule itself
Test: SEC

B1: Mycobacterium tuberculosis TreS P511W (enzyme)
chain: MNEAEHSVEHPPVQGSHVEGGVVEHPDAKDFGSAAALPADPTWFKHAVFYEVLVRAFFDASADGSGDLRGLIDRLDYLQWLGIDCIWLPPFYDSPLRDGGYDIRDFYKVLPEFGTVDDFVALVDAAHRRGIRIITDLVMNHTSESHPWFQESRRDPDGPYGDYYVWSDTSERYTDARIIFVDTEESNWSFDPVRRQFYWHRFFSHQPDLNYDNPAVQEAMIDVIRFWLGLGIDGFRLDAVPYLFEREGTNCENLPETHAFLKRVRKVVDDEFPGRVLLAEANQWPGDVVEYFGDPNTGGDECHMAFHFPLMPRIFMAVRRESRFPISEIIAQTPPIPDMAQWGIFLRNHDELTLEMVTDEERDYMYAEYAKDPRMKANVGIRRRLAPLLDNDRNQIELFTALLLSLPGSPVLYYGDEIGMGDVIWLGDRDGVRIPMQWTPDRNAGFSTANPGRLYLPPSQDPVYGYQAVNVEAQRDTSTSLLNFTRTMLAVRRRHPAFAVGAFQELGGSNWSVLAYVRQVAGDDGDTVLCVNNLSRFPQPIELDLQQWTNYTPVELTGHVEFPRIGQVPYLLTLPGHGFYWFQLTTHEVGAPPTCGGERRL
notes: also called Mtb TreS-P511W
Q: Does B1 bind?
A: binds

B2: Mycobacterium tuberculosis TreS R320E (enzyme)
chain: B1 chain with R320E, W511P
notes: also called Mtb TreS-R320E
Q: Does B2 bind?
A: binds
